Results published in the DeepSol protein solubility set.

test: soluble on expression in E. coli; label from the status in PepcDB or PDB records

| Sequence | soluble on expression in E. coli |
| --- | --- |
| MYAAYQTNGPARPIARTAAFTKEDDLLVDMARQNNLRGRILTYCVAGTFGLLSPNYLHASAATANWDINQIEISGLSESSVGAISESARDIAHIRAVTKISVSELSRVFGVSRQAVHEWIKGGTLSQRNAQRLSELARATDVFIEAEIEASPQVFRRKIAGGQSILDAVRENGNAVELAKTLAATLVRESQQRQRLAARLAGRSATPGTSTEFGSPHLDEDA | not soluble |
| MYDAALGRWHAVDPMSEKYYSWSPYTYCKNNPVLRIDLDGKDDYVISRSGRLFNETPIDKRGKGSTDNLYLSSDRSISVTVNQGLLGEMHSMQAKEQKENRVKKSYGSTQDLETAATVFKFAADHTTVEWKLDVYDDNGTRTAVVATDRDPYGVDNGVYAQNKLSVKGEKVIDIHSHLPGGTKGGAGNDFNLAKPQRKNAVYMKDNRVSTDKKDMIYEYTKNASRVNSIRVYDATDLLQYIKRK | not soluble |
| MYDCAAPSLSTGRNTMNHTAELEKALTDLRHITGISMEIHAETEEEVTKALEQLKLLSSAYKEKYNKIHFLQSLMTDSIPTYNVYDRAARLHIAPEEPRILYLLETSHSLDEDISEILKNLFPSQSGAFRIPLTEASCAILCPVRSLADSSQETVHLTARMIVDTVNAEALARVRVSYSKTLHNLLDLSTAFRETSLALKVGKLFYSEQTVFPYNRLGIGRLIYRLPTSLCENFLHEIFGEEIPQALDEETTATVNKFLQNNLNIAETSRQLHMHRNTLIYRLEQIEKRTGLDLRQFEDAMTFKIASMVMNYLYTERNIPHE | not soluble |
| MYEGLLIDIDYLLNVVKELKINFDKKIKTLNLLIERNIPIVLYTENNKEYVDTIMKYLKIKEPAIIVEGAQIYSPFDLSYEAVFPLSINTVCKLGNWAMDRKMDMSISTDKKVIDYSEWLKELRQVNYKNAGDKLPSAVKVDICMKNDDKRIELLNFIGKNNLECYAHMYLNHVACINSIVDKGNTLKYLANKKKWDIKKFAMIGDYSKDTSIFDEVGFLMSISDFTKDFEKNFDKTLKSDMMSIV | soluble |
| MYEYSFNPNIDHEPGSVESQQSTIYSDSDDSDDSFLDDEVIPPKEQAMRKIEFALADIKRQMDNKEKSLTLRISTSKSHFCLRYTAKRKGKLDRDLHCLHQVYDLLENDKRSTKRELYYEHKAVYGNQKYLDSSIKSICELLNESRANLNILSCGRGIIRGAITFLVENVGVIDARVQEVLITDALLFSNIISEADFILVVEKDTTFQKLMDENFQAMFPRGILATSKGYPDIATRNVLKMLSEKRKFPIYGLFDADPHGIEIYLTYKYGPTKEFAEGRGAFVPTIEWIGLFPTDFHRFTIDQSQCLPLVRTDFVKIEKMIPRSIQLGEIVVTRELDWMIQNKFKMELESINMCGQEYMARFLIAPRVMSIEKEIPIQPETIINEYHEDSQCSLSTDDDREAKDDDYIDSDAEEKFQNMIDNDSD | not soluble |
| MYGLVNKAIQDMISKHHGEDTWEAIKQKAGLEDIDFFVGMEAYSDDVTYHLVGAASEVLGKPAEELLIAFGEYWVTYTSEEGYGELLASAGDSLPEFMENLDNLHARVGLSFPQLRPPAFECQHTSSKSMELHYQSTRCGLAPMVLGLLHGLGKRFQTKVEVTQTAFRETGEDHDIFSIKYEDSNLYDD | soluble |
| MYIVVSTGDRAARIASKLPDCIIIDRDPDSAERLKEKGFNVLNGDASNPEILARFDMGEKIILADNDDFNIKVVKTAKLLGLDVYAVAADEDKCWLYEVEGVSKICGSVEALLSTIFRKNRYFEIQVEAEMEGKTL | not soluble |
| MYKEDTIAAISTPHGAGGVGIIRISGDKAFEIAERIFRGKKDFKLIRSHTINYGKIVNPENGAVLDEVLLSKMEKPKTFTREDVVEINCHGGMVVLKNILELCIKEGARLAEPGEFTKRAFLNGRIDLSQAEAVIDLINSKTNESSKAAISQLEGKLSRKIKDARSKLIELLAHIEVTVDYPEHDIEEITGNMVYEEIGKIKEKLCDIVKSFERGRIIREGIDAVIIGKPNVGKSSLLNELSGKSKAIVTDIPGTTRDIIEEYININGIPLRIIDTAGIRETEDVVEKIGVEKTHRAIDEADLVIMMIDAKRGMDEDDNRILTMLGDKKLIILINKIDLVDEKQINEIESLLKGRKCIRTSVKEGTGISELENAITELFVQGEVSVNEEILLTNIRHKNLIDMAISSIEKAMESIDGSMPLDLVSIDITDAADYLGQITGESVSEDVMHEIFSKFCLGK | not soluble |
| MYKKRQRGEREREIKVEFAMHISIKTLEGKRIKLEVEDSSNTIDLKIHGEPTRELVVDLSPTPDTGAIMMIFIKTLTGRTNTYEVKGSDTIRELKAKHEEKEGIPVEQQRLIFQGRVLEDSKAISDYNIKHESTLHITLHQCGC | soluble |
| MYNDELIESSKIKWQLFLKGDDDAYAWLYSRYVQQLYQYGCRFTTDTEMVKDCVQDVFVNVYRQKDRYSSPPDNVKIYLMSSLRNSIFNVFNKGNLHDTYISNINYEFDLSVEEKLIETEDETSQKHTVAHLLNTLSPRQREIIYYRFFEGLDYSAICELMGLNYQSAYNLLQRSLSRLREMYGILPFFFLF | not soluble |
| MYQASCLFYFMTPVFFLLSTYPRNLLIGDSSTAFTKELIAKMNEVTNSAESTSSKRPGRPRKDGHDEKIIDATLRLIDSNRPVTVNAVVKESGVSRAAVYRRWPGLVDLVAEALDAGRAPVEIDTSGDIKETLIDGLFTNQAKTTGVSYPRQRFRKRLELVMSDQELQLAAAALEHHHHHH | not soluble |
| MYQYDEYDQALVSERVAQFRDQIARRLDGELSEEEFLPLRLQNGLYLQKHAYMLRVAIPYGTLSAPQLRALAHVARHYDRGYGHFTTRQNIQFNWIELEQVGDILEHLAGAQMHAIQTSGNCVRNITTEAFAGVAADEWTDPRPLAEILRQWSTVNPEFLFLPRKFKIALSSAVEDRAAVQMHDIGLYLYRHPDAGELRLRVLVGGGLGRTPMLGQVIRDDLPWQHLLSYVEAILRVYNRYGRRDNKYKARIKILVKALGIEAFAREVEEEWQHLRDGPAQLTAEECQRVAERFVLPRYLPPADGELAYGSARAADPAFARWASRNVQAHKVPGYASVVLSTKPGASAPPGDVTAEQMERVADWAERYGFGEIRVAHEQNLVLPDVRLENLHALWREACAAGLGTPNQGLLSDIIACPGGDYCALANAKSIPIAQGIQQRFEDLDHLHDIGELSLNISGCMNACGHHHIGNIGILGVDKSGSEWYQVTLGGAQGKDSALGKVIGPSFSAAEVPAVIERIVETFTDLRVGPERFIDTFNRVGLEPFKARVYARMEEPA | not soluble |
| MYSRADRLLRQFSLKLNTDSIVFDENRLCSFIIDNRYRILLTSTNSEYIMIYGFCGKPPDNNNLAFEFLNANLWFAENNGPHLCYDNNSQSLLLALNFSLNESSVEKLECEIEVVIRSMENLYHILQDKGITLDTDYTHHHHHH | soluble |
| MYSTLEQLTKHPVFYHFAEISKIPRGSGNEKEISDYLVGFAKERNLEVIQDEALNVIIKKEATTGYENVPAIIIQGHMDMVCEKNQATVHDFEKDPIELRIIGDMLYANQTTLGADNGIAVAYALALLDSKEIPHPALEVVITTEEETTMGGAFAIDPNHFEGKIFINIDSEEDHKLLVSSAGGAKAVETIPVIWDETPANMDAYRLYVGGLKGGHSGMEIDKQRGNANKVLGRVLRDLSAHTEFNISEVHGGLKTNAIPRESVATLLIRTEDVGQVEEKLESWTRVLQEEMRAVDPDVHVTLTKLDETVEKVFAQETQKQLISSLFLIPNGIQSMSMDIKGLVESSTNLGVIETLQDEIKLRNEVRSSVSSLKQHVAEEIKYIAELVGATFEIESEYPEWPYNPNSQIRNLFEKVHQEKYNKEIEIFAVHAGIECSAFVQKMPELDAISFGPDIFNVHTPDEHISISSVVNNWGFFIDVMKGTKELAK | not soluble |
| MYTQTLYELSQEAERLLQLSRQQLQLLEKMPLSVPGDDAPQLALPWSQPNIAERHAMLNNELRKISRLEMVLAIVGTMKAGKSTTINAIVGTEVLPNRNRPMTALPTLIRHTPGQKEPVLHFSHVAPIDCLIQKLQQRLRDCDIKHLTDVLEIDKDMRALMQRIENGVAFEKYYLGAQPIFHCLKSLNDLVRLAKALDVDFPFSAYAAIEHIPVIEVEFVHLAGLESYPGQLTLLDTPGPNEAGQPHLQKMLNQQLARASAVLAVLDYTQLKSISDEEVREAILAVGQSVPLYVLVNKFDQQDRNSDDADQVRALISGTLMKGCITPQQIFPVSSMWGYLANRARHELANNGKLPPPEQQRWVEDFAHAALGRRWRHADLADLEHIRHAADQLWEDSLFAQPIQMLLHAAYANASLYALRSAAHKLLNYAQQAREYLDFRAHGLNVACEQLRQNIHQIEESLQLLQLNQAQVSGEIKHEIELALTSANHFLRQQQDALKVQLAALFQDDSEPLSEIRTRCETLLQTAQNTISRDFTLRFAELESTLCRVLTDVIRPIEQQVKMELSESGFRPGFHFPVFHGVVPHFNTRQLFSEVISRQEATDEQSTRLGVVRETFSRWLNQPDWGRGNEKSPTETVDYSVLQRALSAEVDLYCQQMAKVLAEQVDESVTAGMNTFFAEFASCLTELQTRLRESLALRQQNESVVRLMQQQLQQTVMTHGWIYTDAQLLRDDIQTLFTAERY | not soluble |
| NDAKKYIVSVLILLVAGMFGGCIKEDYSDCPRPFRLTVRAWDADMQDITETGAVQRVVIFVFDETGRRIDRLMMDAAQVAARKPIPLEYDGPTTVSFVAWANPDDHMLEETANVQNVKDLFFRLSSTDGIAQSPGDLFSGVLTCPIEYGSIEQGTDQTVDIYRRTAQVHIIIRGYQEWLEANGPRQLPDYADILLGETPDTYTGLAELIGNAVQYRPDGQIQNGDFISPIFRVYPTLDTTPLHLKLYAYGQELLNISTGSDGVPFIPVIGKMLNIYIDLRGANLNVLVSVTPWDVVQQYAE | not soluble |
| NDDIIVNWVNRTLSEAGKSTSIQSFKDKTISSSLAVVDLIDAIQPGCINYDLVKSGNLTEDDKHNNAKYAVSMARRIGARVYALPEDLVEVKPKMVMTVFACLMGRGMKRV | soluble |
| NETEVAKTSQDTTTASSSSEQNQSSNKTQTSAEVQTNAAAYWDGDYYVKDDGSKAQSEWIFDNYYKAWFYINSDGRYSQNEWHGNYYLKSGGYMAQNEWIYDSNYKSWFYLKSDGAYAHQEWQLIGNKWYYFKKWGYMAKSQWQGSYFLNGQGAMIQNEWLYDPAYSAYFYLKSDGTYANQEWQKVGGKWYYFKKWGYMARNEWQGNYYLTGSGAMATDEVIMDGARYIFAASGELKEKKDLNVGWVHRDGKRYFFNNREEQVGTEHAKKIIDISEHNGRINDWKKVIDENEVDGVIVRLGYSGKEDKELAHNIKELNRLGIPYGVYLYTYAENETDAENDAKQTIELIKKYNMNLSYPIYYDVQNWEYVNKSKRAPSDTDTWVKIINKYMDTMKQAGYQNVYVYSYRSLLQTRLKHPDILKHVNWVAAYTNALEWENPYYSGEKGWQYTSSEYMKGIQGRVDVSVWY | soluble |
| NFIYAHLNRIIRRDDLNMIYIAGPGHGGPALVANTYLEGTYSEHYPDISQDIQGMKHLFRQFSFPGGIGSHATPEIPGSIHEGGELGYALSHAFGAVFDNPDLIAACVVGDGEAETGPLATAWHSNKFLNPVHDGAVLPILHLNGYKIANPTILARISREELDQLFQGYGYQPYIVEGEDPLTMHQLMA | not soluble |
| NGESYNFALNSGYTKLSDNAEVKIAVDKIADLVSNMTVHLMENTEKGDIRIRDELSRKIDINPYSLMTRKTWIYNIVSNLLLYGDGNAIVLPEIKNGLISELKPLDPSLVDFDVRDDSYKIHYKNKTYNPDEVVHFAINPDSEYPFIGTGYRVALKSLVDNLNQATATKKAFMSSKFMPNLIVKVDANAAELSSEKGKNKIEDMYLQRTEEGKPWIIPADLIEIEQVKPLSLNDIAINEAVNIDKKTVAGLLGVPAFFVGVGEFDKNEFNNFINTRIMSIAMIISQTLTRDLLISPTRFFKLNPRSLYSYDITELVAAGGQMVDRIAMDRNELRDWIG | not soluble |
